Measured values taken from paper PMC5809731.

What was measured:
[1] = molecular target: B30.2 domain of rhesus TRIM5α (rhesus macaque) (UniProt Q0PF16); assay: dual-focus fluorescence correlation spectroscopy (2fFCS); 2 nM Alexa 488-labelled B30.2 or CypA titrated with unlabelled capsid surrogate; 7°C; hydrodynamic radius against concentration, viscosity corrected with CypA as reference; Kd per monomeric capsid equivalent
[2] = molecular target: Flag-tagged human cyclophilin A (human) (UniProt P62937); assay: as above
Sequence of Flag-tagged human cyclophilin A (human) (P62937 whole entry): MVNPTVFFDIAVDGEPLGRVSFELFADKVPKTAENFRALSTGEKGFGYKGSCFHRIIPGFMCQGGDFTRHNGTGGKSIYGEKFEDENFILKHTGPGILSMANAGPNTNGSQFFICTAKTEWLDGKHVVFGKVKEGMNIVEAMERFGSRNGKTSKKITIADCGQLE

[3] = molecular target: B30.2 domain of human TRIM5α (human) (UniProt Q9C035); assay: as above
Sequence of B30.2 domain of human TRIM5α (human) (Q9C035 286-493): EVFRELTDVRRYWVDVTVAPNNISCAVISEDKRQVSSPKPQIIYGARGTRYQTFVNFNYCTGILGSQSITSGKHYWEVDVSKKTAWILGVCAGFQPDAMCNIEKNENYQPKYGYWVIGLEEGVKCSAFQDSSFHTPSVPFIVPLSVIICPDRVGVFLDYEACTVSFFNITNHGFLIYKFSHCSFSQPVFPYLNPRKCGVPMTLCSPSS

[4] = molecular target: Flag-tagged human cyclophilin A (human) (UniProt P62937); assay: dual-focus fluorescence correlation spectroscopy (2fFCS)

Sequence of B30.2 domain of rhesus TRIM5α (rhesus macaque) (Q0PF16 other isoform, or with tags, fused parts or gaps): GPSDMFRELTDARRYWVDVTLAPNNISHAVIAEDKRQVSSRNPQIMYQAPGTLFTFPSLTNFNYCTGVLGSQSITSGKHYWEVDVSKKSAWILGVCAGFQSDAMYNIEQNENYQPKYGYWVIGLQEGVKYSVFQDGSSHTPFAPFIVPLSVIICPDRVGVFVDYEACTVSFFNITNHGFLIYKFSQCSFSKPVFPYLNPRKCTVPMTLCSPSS

Row | Substance | Kd [1] | Kd [2] | Kd [3] | Kd [4]
1 | disulfide-linked A14C E45C W184A M185A HIV-1 capsid hexamer (complex) | 600 µM | 28.9 µM | 540 µM | –
2 | wild-type, full-length HIV-1 capsid protein (from UniProt P12493 133-363) (natural protein; other documents disagree on this pair) | – | – | – | 26.5 µM
3 | TMEA-cross-linked R82C E180D V181A HIV-1 capsid trimer (complex) | 440 µM | 17.8 µM | 840 µM | –
